Assay results as given in US20100136007A1 (Five Prime, published 2010).

Target: T1, hCSF1R-ECD.506 (human, UniProt P07333 20-506)
T1 construct: also called hCSF1R.506; human CSF1R.506
Experiment: SPR, Biacore
Protocol: The CSF1 and IL34 ligand binding affinity and kinetics of the hCSF1R.506-GS-Fc and hCSF1R.512-GS-Fc fusion proteins were determined using Biacore® X surface plasmon resonance (SPR) technology (Uppsala, Sweden). CSF1 and IL34 are the only two ligands known to interact with the CSF1R ECD. The CSF1 and IL34 binding experiments were carried out using methodology similar to that described in Lin et al., Science 320:807-811, (2008).
In order to compare the relative ligand binding affinity of hCSF1R.506 (SEQ ID NO:2) and hCSF1R.506-Fc (SEQ ID NO:6) proteins expressed in CHO cells to CSF1, a Biacore® assay was used.

T1 sequence (P07333 20-506 limits assumed): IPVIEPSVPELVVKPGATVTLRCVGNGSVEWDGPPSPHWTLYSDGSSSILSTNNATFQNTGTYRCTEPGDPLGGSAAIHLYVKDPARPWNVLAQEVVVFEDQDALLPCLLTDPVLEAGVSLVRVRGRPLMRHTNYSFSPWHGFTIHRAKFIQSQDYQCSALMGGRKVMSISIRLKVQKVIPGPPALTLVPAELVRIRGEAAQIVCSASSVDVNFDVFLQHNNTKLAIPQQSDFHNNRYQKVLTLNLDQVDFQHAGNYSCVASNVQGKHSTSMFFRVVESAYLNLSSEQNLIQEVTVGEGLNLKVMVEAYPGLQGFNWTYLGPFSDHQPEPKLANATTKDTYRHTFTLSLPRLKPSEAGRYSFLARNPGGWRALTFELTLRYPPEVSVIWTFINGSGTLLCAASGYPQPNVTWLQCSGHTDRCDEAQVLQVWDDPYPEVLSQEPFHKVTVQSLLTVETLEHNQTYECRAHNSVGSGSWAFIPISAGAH

Kd: 28.9 nM | koff: 0.000809 s⁻¹ | kon: 28000 M⁻¹ s⁻¹
B1: colony stimulating factor 1 ligand (CSF1) (ligand, UniProt P09603 33-190, looked up)
chain: EEVSEYCSHMIGSGHLQSLQRLIDSQMETSCQITFEFVDQEQLKDPVCYLKKAFLLVQDIMEDTMRFRDNTPNAIAIVQLQELSLRLKSCFTKDYEEHDKACVRTFYETPLQLLEKVKNVFNETKNLLDKDWNIFSKNCNNSFAECSSQDVVTKPDCN
notes: also called MCSF; MGC31930
